Test results from paper doi:10.1101/2023.07.12.548734.

Biological target: CrtSPARTA (heterodimeric TIR-APAZ/short pAgo complex from Crenotalea thermophila) (Crenotalea thermophila)
Assay: cryo-EM structure

stoichiometry N (heterodimers in the assembly (octamer)): 4
stoichiometry N (heterodimers in the assembly (tetramer)): 2
Substance: CrtSPARTA (heterodimeric TIR-APAZ/short pAgo complex from Crenotalea thermophila)
